Test results taken from patent publication US20240239915A1.

Tests used:
Assay in all cases: SPR (Biacore T200); receptor immobilized directly on CM5 chip, antibody as analyte at 4.7 µM
[1] = molecular target: Recombinant Human Fc gamma RIIIB/CD16b Protein (R&D Systems), His-tagged (human) (UniProt O75015)
[2] = molecular target: Recombinant Human Fc gamma RIIB/C (CD32b/c) Protein (R&D Systems), His-tagged (human) (UniProt P31994)
[3] = molecular target: Recombinant Human Fc gamma RIIA/CD32a (R167) Protein (R&D Systems), His-tagged (human) (UniProt P12318)
Sequence of Recombinant Human Fc gamma RIIA/CD32a (R167) Protein (R&D Systems), His-tagged (human) (P12318 other isoform, or with tags, fused parts or gaps): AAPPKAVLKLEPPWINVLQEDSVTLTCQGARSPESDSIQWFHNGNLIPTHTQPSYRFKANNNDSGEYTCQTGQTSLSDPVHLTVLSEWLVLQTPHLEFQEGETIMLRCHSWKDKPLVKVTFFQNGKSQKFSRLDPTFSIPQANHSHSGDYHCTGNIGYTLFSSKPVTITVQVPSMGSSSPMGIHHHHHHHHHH

[4] = molecular target: Recombinant Human Fc gamma RIIIA/CD16a protein (R&D Systems), His-tagged (human) (UniProt P08637)
Sequence of Recombinant Human Fc gamma RIIIA/CD16a protein (R&D Systems), His-tagged (human) (P08637 other isoform, or with tags, fused parts or gaps): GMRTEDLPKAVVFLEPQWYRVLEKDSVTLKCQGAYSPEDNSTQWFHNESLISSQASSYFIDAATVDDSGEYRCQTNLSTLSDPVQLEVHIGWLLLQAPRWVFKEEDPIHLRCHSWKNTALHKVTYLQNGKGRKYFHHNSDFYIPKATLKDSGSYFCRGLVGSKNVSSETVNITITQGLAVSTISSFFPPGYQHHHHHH

Sequence of Recombinant Human Fc gamma RIIIB/CD16b Protein (R&D Systems), His-tagged (human) (O75015 other isoform, or with tags, fused parts or gaps): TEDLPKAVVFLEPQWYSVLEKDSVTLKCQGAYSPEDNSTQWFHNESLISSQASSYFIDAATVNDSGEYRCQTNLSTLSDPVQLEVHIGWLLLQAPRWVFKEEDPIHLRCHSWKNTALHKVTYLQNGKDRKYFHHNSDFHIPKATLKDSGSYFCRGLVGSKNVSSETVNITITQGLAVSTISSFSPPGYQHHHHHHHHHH
Sequence of Recombinant Human Fc gamma RIIB/C (CD32b/c) Protein (R&D Systems), His-tagged (human) (P31994 other isoform, or with tags, fused parts or gaps): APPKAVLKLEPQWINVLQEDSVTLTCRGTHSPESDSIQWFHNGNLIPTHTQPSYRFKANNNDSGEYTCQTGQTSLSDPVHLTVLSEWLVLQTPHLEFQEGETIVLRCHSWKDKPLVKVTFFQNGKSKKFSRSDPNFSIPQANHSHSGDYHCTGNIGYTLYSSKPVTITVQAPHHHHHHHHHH

Substance | binding response (RU) [1] [RU] | binding response (RU) [2] [RU] | binding response (RU) [3] [RU] | binding response (RU) [4] [RU]
LALA variant of the anti-CD70 antibody vorsetuzumab (IgG1) | 4.5 | 18 | 64 | 100
LALA-DG variant of the anti-CD70 antibody vorsetuzumab (IgG1) | – | – | 8.3 | –
